Data published in patent US20020160403.

B1: huBUB1 protein (plasmid p337-50) (protein)
chain: MDTPENVLQMLEAHMQSYKGNDPLGEWERYIQWVEENFPENKEYLITLLEHLMKEFLDKKKYHNDPRFISYCLKFAEYNSDLHQFFEFLYNHGIGTLSSPLYIAWAGHLEAQGELQHASAVLQRGIQNQAEPREFLQQQYRLFQTRLTETHLPAQARTSEPLHNVQVLNQMITSKSNPGNNMACISKNQGSELSGVISSACDKESNMERRVITISKSEYSVHSSLASKVDVEQVVMYCKEKLIRGESEFSFEELRAQKYNQRRKHEQWVNEDRHYMKRKEANAFEEQLLKQKMDELHKKLHQVVETSHEDLPASQERSEVNPARMGPSVGSQQELRAPCLPVTYQQTPVNMEKNPREAPPVVPPLANAISAALVSPATSQSIAPPVPLKAQTVTDSMFAVASKDAGCVNKSTHEFKPQSGAEIKEGCETHKVANTSSFHTTPNTSLGMVQATPSKVQPSPTVHTKEALGFIMNMFQAPTLPDISDDKDEWQSLDQNEDAFEAQFQKNVRSSGAWGVNKIISSLSSAFHVFEDGNKENYGLPQPKNKPTGARTFGERSVSRLPSKPKEEVPHAEEFLDDSTVWGIRCNKTLAPSPKSPGDFTSAAQLASTPFHKLPVESVHILEDKENVVAKQCTQATLDSCEENMVVPSRDGKFSPIQEKSPKQALSSHMYSASLLRLSQPAAGGVLTCEAELGVEACRLTDTDAAIAEDPPDAIAGLQAEWMQMSSLGTVDAPNFIVGNPWDDKLIFKLLSGLSKPVSSYPNTFEWQCKLPAIKPKTEFQLGSKLVYVHHLLGEGAFAQVYEATQGDLNDAKNKQKFVLKVQKPANPWEFYIGTQLMERLKPSMQHMFMKFYSAHLFQNGSVLVGELYSYGTLLNAINLYKNTPEKVMPQGLVISFAMRMLYMIEQVHDCEIIHGDIKPDNFILGNGFLEQDDEDDLSAGLALIDLGQSIDMKLFPKGTIFTAKCETSGFQCVEMLSNKPWNYQIDYFGVAATVYCMLFGTYMKVKNEGGECKPEGLFRRLPHLDMWNEFFHVMLNIPDCHHLPSLDLLRQKLKKVFQQHYTNKIRALRNRLIVLLLECKRSRK
B2: HA-huBUB1 (protein)
chain: MDTPENVLQMLEAHMQSYKGNDPLGEWERYIQWVEENFPENKEYLITLLEHLMKEFLDKKKYHNDPRFISYCLKFAEYNSDLHQFFEFLYNHGIGTLSSPLYIAWAGHLEAQGELQHASAVLQRGIQNQAEPREFLQQQYRLFQTRLTETHLPAQARTSEPLHNVQVLNQMITSKSNPGNNMACISKNQGSELSGVISSACDKESNMERRVITISKSEYSVHSSLASKVDVEQVVMYCKEKLIRGESEFSFEELRAQKYNQRRKHEQWVNEDRHYMKRKEANAFEEQLLKQKMDELHKKLHQVVETSHEDLPASQERSEVNPARMGPSVGSQQELRAPCLPVTYQQTPVNMEKNPREAPPVVPPLANAISAALVSPATSQSIAPPVPLKAQTVTDSMFAVASKDAGCVNKSTHEFKPQSGAEIKEGCETHKVANTSSFHTTPNTSLGMVQATPSKVQPSPTVHTKEALGFIMNMFQAPTLPDISDDKDEWQSLDQNEDAFEAQFQKNVRSSGAWGVNKIISSLSSAFHVFEDGNKENYGLPQPKNKPTGARTFGERSVSRLPSKPKEEVPHAEEFLDDSTVWGIRCNKTLAPSPKSPGDFTSAAQLASTPFHKLPVESVHILEDKENVVAKQCTQATLDSCEENMVVPSRDGKFSPIQEKSPKQALSSHMYSASLLRLSQPAAGGVLTCEAELGVEACRLTDTDAAIAEDPPDAIAGLQAEWMQMSSLGTVDAPNFIVGNPWDDKLIFKLLSGLSKPVSSYPNTFEWQCKLPAIKPKTEFQLGSKLVYVHHLLGEGAFAQVYEATQGDLNDAKNKQKFVLKVQKPANPWEFYIGTQLMERLKPSMQHMFMKFYSAHLFQNGSVLVGELYSYGTLLNAINLYKNTPEKVMPQGLVISFAMRMLYMIEQVHDCEIIHGDIKPDNFILGNGFLEQDDEDDLSAGLALIDLGQSIDMKLFPKGTIFTAKCETSGFQCVEMLSNKPWNYQIDYFGVAATVYCMLFGTYMKVKNEGGECKPEGLFRRLPHLDMWNEFFHVMLNIPDCHHLPSLDLLRQKLKKVFQQHYTNKIRALRNRLIVLLLECKRSRK

Columns and labels:
[1] = biological target: FLAG-huBUB3 protein fusion (plasmid p322-1)
[2] = biological target: huBUB3 protein (untagged; expression plasmid p291-2, ~2.7 kb variant)
Sequence of huBUB3 protein (untagged; expression plasmid p291-2, ~2.7 kb variant) (chain, as listed by the source mutant): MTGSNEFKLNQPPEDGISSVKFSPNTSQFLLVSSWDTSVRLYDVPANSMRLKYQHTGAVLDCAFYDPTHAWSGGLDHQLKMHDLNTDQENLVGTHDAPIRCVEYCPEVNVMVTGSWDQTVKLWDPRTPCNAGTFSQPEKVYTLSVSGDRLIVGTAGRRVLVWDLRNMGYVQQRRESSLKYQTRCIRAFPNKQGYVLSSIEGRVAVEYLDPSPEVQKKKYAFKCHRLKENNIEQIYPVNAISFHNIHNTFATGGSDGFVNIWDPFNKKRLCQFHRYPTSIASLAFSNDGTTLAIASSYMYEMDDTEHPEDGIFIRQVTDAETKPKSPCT

Sequence of FLAG-huBUB3 protein fusion (plasmid p322-1) (chain, as listed by the source): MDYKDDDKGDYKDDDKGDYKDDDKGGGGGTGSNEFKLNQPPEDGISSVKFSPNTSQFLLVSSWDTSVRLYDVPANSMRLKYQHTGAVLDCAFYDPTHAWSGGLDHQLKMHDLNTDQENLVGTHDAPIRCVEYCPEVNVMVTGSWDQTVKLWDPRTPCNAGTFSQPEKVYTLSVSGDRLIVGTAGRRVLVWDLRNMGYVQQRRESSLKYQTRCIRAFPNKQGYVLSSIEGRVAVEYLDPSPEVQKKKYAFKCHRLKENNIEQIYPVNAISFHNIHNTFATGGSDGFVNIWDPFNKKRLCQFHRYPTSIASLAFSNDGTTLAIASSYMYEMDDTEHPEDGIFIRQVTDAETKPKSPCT

| Protein | in vitro kinase activity towards test proteins (PHAS-I) | phosphorylation in kinase reactions [1] | huBUB1 auto-phosphorylation [2] | phosphorylation in kinase reactions [2] |
| --- | --- | --- | --- | --- |
| B1 | identified PHAS-I as an in vitro substrate of the huBUB1 kinase |  |  |  |
| B2 |  | only HA-huBUB1 auto-phosphorylation was observed in kinase reactions containing these proteins | did not reproducibly stimulate or inhibit huBUB1 auto-phosphorylation | only HA-huBUB1 auto-phosphorylation was observed in kinase reactions containing these proteins |
